Substitutions are numbered along the chain they refer to.
Assays:
[1] = target: T1, Human TNFR2-His (Sino 10417-H08H) (human, UniProt P20333 23-257); test: ELISA, plate coated with Human TNFR2-His, detection with anti-human IgG Fc-HRP [panel C]
T1 construct: Bought protein; also called recombinant human TNFR2 protein; not shown: His tag
T1 sequence (looked up): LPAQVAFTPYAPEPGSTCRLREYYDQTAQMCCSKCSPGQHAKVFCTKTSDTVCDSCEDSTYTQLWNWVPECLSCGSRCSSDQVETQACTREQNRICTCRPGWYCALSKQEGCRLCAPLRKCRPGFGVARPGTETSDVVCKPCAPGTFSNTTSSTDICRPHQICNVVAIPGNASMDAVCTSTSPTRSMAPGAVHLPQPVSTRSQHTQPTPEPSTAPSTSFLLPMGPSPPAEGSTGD
Procedure: (§1) The test humanized antibody against TNFR2 (as described in Example 1, the antibody was comprised of variable regions linked to IgG-Fc; the WT chimeric antibody also adopted the IgG-Fc structure) was subjected to 3.33-fold gradient dilution, loaded with 100 μl/well, and incubated with shaking at room temperature for 1.5 hours. The plate was washed, and then a working solution of murine anti-human IgG Fc-HRP (diluted at 1:10000) was added, loaded with 100 μl/well, and incubated with shaking at room temperature for 1.0 hour. The plate was washed again, and then the substrate TMB of HRP was added to develop colour. A stop solution was added to stop the reaction, and then a microplate reader (MD 13) was used to read the absorbance value. The binding curve of an antibody was drawn with antibody concentration as the abscissa and corresponding OD value as the ordinate, and fitted with four parameters (GraphPad Prism9) to calculate the EC50 value. The smaller the EC50 value, the stronger the binding ability of an antibody to human/cynomolgus monkey TNFR2. The binding effect of a humanized antibody was normalized to its corresponding human-murine chimeric antibody WT (see SEQ ID NOs: 38-43 for the sequence). The higher the percentage value, the better the binding effect of the humanized antibody. […]

[2] = target: T2, human TNFR2 (Novoprotein, Cat #C830) (human, UniProt P20333 23-257, limits assumed); test: competition ELISA: antibody titrated against human TNFα-Biotin on coated human TNFR2 (Novoprotein), detection with Streptavidin-HRP [panel C]
T2 construct: construct not described; also called human TNFR2 protein
T2 sequence (looked up): T1 sequence (looked up)
Procedure: (§2) 1 μg/ml human TNFR2 (Novoprotein, Cat #C830) was pre-coated with 100 μl/well […] in an ELISA plate. All the test TNFR2 antibodies were subjected to 2.5-fold gradient dilution from the highest concentration of 30 μg/ml; the diluted antibodies were mixed with 15 ng/ml human TNFα-Biotin (Acro Biosystem, Cat #TNA-H82E3) in equal volume, respectively; the resulting mixture was added to the ELISA plate at 100 μl/well, and incubated with shaking at room temperature for 2.0 hours. The plate was washed, and then a Streptavidin-HRP working solution (diluted at 1:10000) was added at 100 μl/well, and the mixture was incubated with shaking at room temperature for 40 minutes. The plate was washed again, and then the substrate TMB of HRP was added to develop colour. A stop solution was added to stop the reaction, and then a microplate reader (MD 13) was used to read the absorbance value. The inhibitory curve of an antibody was drawn with antibody concentration as the abscissa and corresponding OD value as the ordinate, and fitted with four parameters (GraphPad Prism9) to calculate the IC50 value. The smaller the IC50 value, the stronger the ability of an antibody to inhibit the binding of human TNFα to human TNFR2. The blocking effect of a humanized antibody was normalized to its corresponding human-murine chimeric antibody WT. […]

[3] = target: T3, Cynomolgus TNFR2-His (Sino 90102-C08H) (cynomolgus monkey, UniProt A0A2K5VET2 132-366); test: ELISA, plate coated with Cynomolgus TNFR2-His, detection with anti-human IgG Fc-HRP [panel A]
T3 construct: Bought protein; also called cynomolgus monkey TNFR2; recombinant cynomolgus monkey TNFR2 protein; not shown: His tag
T3 sequence: T1 sequence (looked up) with S16G, S36P, P117Q, N164H, E210A, S216G, M223V
Procedure: as §1

[4] = target: T2, human TNFR2 (Novoprotein, Cat #C830); test: competition ELISA: antibody titrated against human TNFα-Biotin on coated human TNFR2 (Novoprotein), detection with Streptavidin-HRP [panel A]
Procedure: as §2

[5] = target: T3, Cynomolgus TNFR2-His (Sino 90102-C08H); test: ELISA, plate coated with Cynomolgus TNFR2-His, detection with anti-human IgG Fc-HRP [panel B]
Procedure: as §1

B1: 224-WT (antibody, V domains shown)
VH: EVQLQESGPEIVKPGASVKLSCTASGFNNKDIYMHWVKQRPEQGLEWIGRIDPATGNTKHDPKFQDKATLSSDTSSNTAYLQFSSLTSEDTAVYYCAHSPYGDFGAMDYWGQGTTVTVSS
VL: DIQMTQSPAIMSASLGERVTMTCTASSSVSSNYLHWYQQKPGSSPKLWIYSTSNLPSGVPARFSGSGSGTSYSLTISSMEAEDAATYYCHQYHRSPWTFGGGTKLEIK
notes: Human-murine chimeric wild-type molecule; also called human-murine chimeric antibody WT of #224
- EC50 (read off the curve) [1]: ~10 ng/mL
- IC50 (read off the curve) [2]: ~0.5 µg/mL

B2: 001-WT (antibody, V domains shown)
VH: EVQLQESGGGLVQPGGSLNLSCAASGFAFSTYDLSWVRQTPEKRLEWVAYINNGGISTYYSDTVKGRFTISRDNAKNTLYLQMSSLKSEDTAMYYCVRGPFYGSANYFDYWGQGTTVTVSS
VL: EIVMTQSPASLSLSVGETVTITCRTSESIYSNLPWYQQKQGKSPQLLVYDATKLAEGVPSRFSGSESGTQYSLKINSLQSEDFGTYYCQHFWVTPWTFGGGTKLEIK
notes: Human-murine chimeric wild-type molecule; also called human-murine chimeric antibody WT of #001
- EC50 (read off the curve) [3]: ~10 ng/mL
- IC50 (read off the curve) [4]: ~0.6 µg/mL

B3: 219-WT (antibody, V domains shown)
VH: EVQLQESGAELVRPGASVKLSCKASGYSFTNYWMNWVKQRPGQGLEWIGMIHPSDTETRLNQNFKDKATLTVDKSSSTSYMQLSSPTSEDSAVYYCARGEGLGAARSVSMDYWGQGTTVTVSS
VL: DILMTQSPSSLSASLGDRVTISCRASQDISNYLNWYQQKPDGTVKVLIYYTAILHSGVPSRFSGSGSGTDYSLTISNLEQEDIATYFCQQGNTLPWTFGGGTKLEIK
notes: Human-murine chimeric wild-type molecule
- EC50 (read off the curve) [5]: ~10 ng/mL

Source: US20240109974A1 (SHANDONG SIMCERE BIOPHARMACEUTICAL, published 2024)
